Our source for the amyloid nucleation score values is the supplement of paper PMC12042874.

± gives the uncertainty stated by the source.

The nature of this data set: amyloid nucleation score (Sup35N fusion, yeast selection) (log enrichment); library NNK3; higher = more nucleation; inactive = no reads after selection. Summed up: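 Nucleation score is defined as the DiMSum log enrichment of output over input reads, with centring on the mode score of non-aggregating sequences. A minimum of 100 input reads was required for each sequence. Reads came from Illumina sequencing of plasmid inserts from psi-negative yeast expressing Sup35N fused to peptides of 20 random codons, induced with 100 μM copper sulfate for 24 hours and grown 7 days at 30°C on medium lacking adenine and uracil.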

With FCYEHSLWLCLSYKVTVMRM, the amyloid nucleation score worked out at 1.08 ± 0.15.

With SARYDFSYEYGRIKYRELDR, the amyloid nucleation score amounted to 1.1 ± 0.15. The same measure for YWYTTCIWRVTSNCWVCISW: “inactive”; for FLGDYRILSLLFYI: 2.49 ± 0.053. For the substance NRLFTH, the amyloid nucleation score entry was “inactive”. With SWITHSIGSDTATGYETFFN, the amyloid nucleation score result was “inactive”.

Take QKVYNFMWYLFQYIELVYMN: the amyloid nucleation score result is “inactive”. In the case of LVMPYDMCCTRFQRAFSVCC, the amyloid nucleation score entry is “inactive”.

With VTILMLNHYSYTSLLMRKFN, the amyloid nucleation score was 0.704 ± 0.12. On to SEGFLAWCLRDLRSGRVAR, for which the amyloid nucleation score entry is “inactive”.

For IRLWQEHWNWRGRSLFFRWC, the amyloid nucleation score entry was “inactive”. As to TEVPFRVSF, the amyloid nucleation score entry is “inactive”. For the substance KASWRMLC, the amyloid nucleation score entry is “inactive”. The substance NFFSA came in with an amyloid nucleation score of -0.51 ± 0.73. The same measure for TLVRTDPRGTVSPPTFPCEW: “inactive”. The same measure for ICLVEISDGAFRKR: “inactive”; for GSTYTVGSAGSSMTTRDLDM: “inactive”. Take NRCQKSVVYLSLVYYHGIGM: the amyloid nucleation score entry was “inactive”. Turning to FSYSSRGVYYG, the amyloid nucleation score was -0.649 ± 0.98. The same measure for SDFDMFSCLGNRNLHCSVSV: “inactive”; for LLGCAYTGSTFHGNVGSFVL: “inactive”. On to SNSRNSTGVVQMTRIPKMMR, for which the amyloid nucleation score entry was “inactive”. SLVIQKSFRGDGLRVRHGLQ: the amyloid nucleation score result is “inactive”.

For the substance SVGEKGN, the amyloid nucleation score entry was “inactive”. The same measure for ECCGDLGAVWQVVRNCGKVL: “inactive”; for NWAGRLWLTV: “inactive”. For SRCFNSGTYPEICVHRVLKV the value was “inactive”; for DMACMVFGWE, “inactive”; for IFLYNVLIGLCLDNPYKLFG, “inactive”. SEPRWSISDYWTKSVDMVLW gave an amyloid nucleation score of 1.07 ± 0.2. TVIKPWLLICCDLFREVGFA: the amyloid nucleation score is 1.12 ± 0.14. With RVIATRDDCPFLGW, the amyloid nucleation score entry was “inactive”. As for SCWLGVVETRHNLYDAQNGS, the amyloid nucleation score result is “inactive”. In the case of WVLDSERQMANSLWSGGGLA, the amyloid nucleation score result was “inactive”. Regarding VSYWNEHHSEIVPLGCF, the amyloid nucleation score result was “inactive”. The substance YCIVLKYNQLLSTMSANNMY displayed an amyloid nucleation score of 1.19 ± 0.1. For the substance VWLMGMTYF, the amyloid nucleation score result was “inactive”. Take HIRFWSDNRT: the amyloid nucleation score was determined as 0.468 ± 0.2. For IMPPEFVFIFHRMNGHYLGF the value was “inactive”; for VLFMMMERHSRSRSRGSLQ, 0.858 ± 0.23.

As for ISTLGYFAELVI, the amyloid nucleation score result is “inactive”. For YTVRMWKDDVRARRGSQGVW, the amyloid nucleation score result was “inactive”. As for AVSFLWHTYVLGGLLKLFGG, the amyloid nucleation score entry was “inactive”.

As for ESDGCNNQFRHWSHCRSKNP, the amyloid nucleation score entry was “inactive”.

Take SVTFSHVRTSRIRCGIMVYP: the amyloid nucleation score result is “inactive”.

SYGNCSSMHGPVKMLRICHQ: the amyloid nucleation score result was “inactive”. Take RVWMIGGYSDLFHWNSVLVS: the amyloid nucleation score entry was “inactive”. As to SILLLDSEGSMNLEAIV, the amyloid nucleation score entry was “inactive”. For YYCDLRSYIRSPG, the amyloid nucleation score result was “inactive”. With VSLRQVS, the amyloid nucleation score result is “inactive”. For the substance RANRQQGVGTKQREGHNTVG, the amyloid nucleation score result was “inactive”. With RRTVYRHF, the amyloid nucleation score result is “inactive”. For NPETASLNLIKMSMHVSSFV the value was “inactive”. Take IYKKNMAGRVDQKIVTQDPP: the amyloid nucleation score entry is “inactive”.

Consider PWRRDKSGVVLSWDAISFAW, for which the amyloid nucleation score entry was “inactive”. Consider SFFESCF, for which the amyloid nucleation score entry is “inactive”.

For NCNPFCIRLWFPNEYICW, the amyloid nucleation score result was “inactive”. As for KWRDIIYCIYSIMIDSCTSR, the amyloid nucleation score entry was “inactive”. RGFAVSF displayed an amyloid nucleation score of -0.678 ± 0.89. Regarding CPCRHVFSRLSPF, the amyloid nucleation score entry is “inactive”. On to WYNDVMEVESLISYVDFFRE, for which the amyloid nucleation score result is “inactive”. As for RVEMICFQDYLEYKRE, the amyloid nucleation score entry is “inactive”.

For the substance FSYVPQAILYLCLYYNVVHT, the amyloid nucleation score entry is “inactive”. For the substance VLADCWRSGIHWIGHTYLIN, the amyloid nucleation score entry was “inactive”. For TFYDDYQDLQKLFARFWLPV the value was “inactive”; for YLNSYQDIYVRCVLELLYSS, “inactive”. The same measure for CYYRCDCLCMTWWGHRVIVV: “inactive”. Consider YWLNK, for which the amyloid nucleation score entry is “inactive”. Regarding RLSLVFRHIAFTS, the amyloid nucleation score entry was “inactive”.

Turning to ESWKWYQYSVQWAWYEHPHS, the amyloid nucleation score result was “inactive”. The same measure for FNIMVYCNESSL: “inactive”; for FGMSQKSSRGWGLNV: “inactive”; for CRACGRWCNSSYIYIY: “inactive”.

Consider SDRFYHCTFHAVTVRWKQRV, for which the amyloid nucleation score result is “inactive”. For the substance NSVNMTRCRVYTCFAFCNW, the amyloid nucleation score came to 3.13 ± 0.07. With TLLYERNEYVVRNTYWDICL, the amyloid nucleation score entry is “inactive”. As to GSTSRIPGVLVSKRRANMQH, the amyloid nucleation score entry was “inactive”. Take VVILGLHRVVDRRNAKVAKL: the amyloid nucleation score result was “inactive”. The same measure for IRVMNEMYLFLNRVYFAFSY: “inactive”; for NALFHRI: “inactive”. Turning to CLIFVWATIDYNYFCLS, the amyloid nucleation score turned out to be 0.6 ± 0.16. Consider NNNFRKDSS, for which the amyloid nucleation score entry was “inactive”. In the case of SMRILR, the amyloid nucleation score result was “inactive”.

DSSRTVGCLSCFYFAIGFWI yielded an amyloid nucleation score of 0.681 ± 0.34.

On to FYWSFIRLFRS, for which the amyloid nucleation score entry is “inactive”.

SKWSTEFLTCHT: the amyloid nucleation score result is “inactive”. The same measure for ECWKVGKGLRSE: “inactive”. For MCWLLLIRWDK the value was “inactive”; for PVFVCCRWHVVFGKNNGSAT, 1.47 ± 0.13; for FVVLLGFYHLASQDAYRGAL, 1.09 ± 0.14. For FSSYTWNPL, the amyloid nucleation score result was “inactive”. In the case of FNSRNSVVTDLRYWSIRGLV, the amyloid nucleation score result was “inactive”. For YFLKDKPVNRMIQ, the amyloid nucleation score was determined as 1.75 ± 0.083.

In the case of CQLAV, the amyloid nucleation score entry is “inactive”.

On to ILGGGSIFKSRQNMIWYTLS, for which the amyloid nucleation score was 0.207 ± 0.61. Consider SESQYRRWYTLAFVYMRHLN, for which the amyloid nucleation score entry is “inactive”. For FVFIVCMCSSTWAQMYGLNW the value was 1.25 ± 0.084; for SWYESKFVAVRWWIGDPLRG, 0.703 ± 0.26; for GVDFEDQPSSQDFLYSARYL, “inactive”. In the case of DSDDNVRKNFAS, the amyloid nucleation score entry is “inactive”. Substance FFCNLSSILRWGN yielded an amyloid nucleation score of 0.572 ± 0.18.

On to NFPYYSEYFFLCIRDSTSKS, for which the amyloid nucleation score result was “inactive”. In turn, GYVPMYVCLSPYHKTVLWLS gave an amyloid nucleation score of 0.447 ± 0.2. For VLVCSAMNGFSFHNLSH the value was 0.872 ± 0.15; for CPTASHNIALLTYDQTRTQY, “inactive”. In the case of LTYGFFESNFGGCNRFCF, the amyloid nucleation score result is “inactive”.

With SVIARVVRPMLRCKVSSMSM, the amyloid nucleation score entry was “inactive”. Turning to DWCVSSEMSVTNALQATKFA, the amyloid nucleation score entry was “inactive”.

Take NYWIHVNVAMRVNYYRFFMF: the amyloid nucleation score result was “inactive”. Take AFSISVLM: the amyloid nucleation score result is “inactive”. With WFGLIFFLICLYTPQLSLKL, the amyloid nucleation score result is “inactive”.

In the case of VKVLWFSDCSSLYCHSVDGP, the amyloid nucleation score entry is “inactive”. Take LAVFSNRRCFFLENQYHRRS: the amyloid nucleation score entry was “inactive”. Take YSTVDQLARGLQKLMVWLDV: the amyloid nucleation score entry is “inactive”.

LLIDCYVDYSC yielded an amyloid nucleation score of 0.105 ± 0.24. For SLYRWYVQMRGIR the value was “inactive”; for WVCPCKSGMSQNWRFYNPSR, “inactive”.

As for LYWEPKLTSDFKRLDLRLVP, the amyloid nucleation score entry was “inactive”.

Regarding GVFVEIRILYKGKWYTCMSK, the amyloid nucleation score result was “inactive”. Take NTLGGRLLSLCARGMAIDCL: the amyloid nucleation score came to 0.625 ± 0.35. Consider LTLSYKQERTTARGKPVYLR, for which the amyloid nucleation score entry was “inactive”. In the case of FLSPSGVD, the amyloid nucleation score result is “inactive”.

On to VWDYLVAYYVALKNVTDSGQ, for which the amyloid nucleation score result was “inactive”.

On to NYPIA, for which the amyloid nucleation score result is “inactive”. Regarding PFSFCHLLLSKISIGWRYSL, the amyloid nucleation score entry was “inactive”.

Regarding MTYHDGTGLFGVVL, the amyloid nucleation score entry was “inactive”. Regarding IICYSWRRFLC, the amyloid nucleation score result is “inactive”.

In the case of SYRRIGHMRTKLGQVVR, the amyloid nucleation score entry is “inactive”. As to SSFFRMLVLIVMRCQDTSNR, the amyloid nucleation score entry is “inactive”. As for FSVYVAG, the amyloid nucleation score entry was “inactive”.

Take LYVFCTSY: the amyloid nucleation score result is “inactive”. Take GGYRVGFYQY: the amyloid nucleation score result is “inactive”.
